# Assay results: the supplement of paper PMC9732359
# ± gives the uncertainty stated by the source.
# Assay: protein stability index of a GFP-peptide fusion (yeast GPS) (PSI 1-4); higher = more stable; sorted into four equal gates, so the index is relative within each strain
# How it was run: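 Each library plasmid carries Cherry plus GFP with a tiled 17-residue yeast protein peptide fused downstream, and the pooled library was carried in yeast. Mid-log cultures in leucine-free medium were sorted into four equal gates by GFP/Cherry ratio. Reads from Illumina sequencing of PCR-amplified plasmids from each gate were assigned to strains by barcodes. Per peptide, the protein stability index was computed as the summed products of gate read frequency and gate number.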
Sequence,protein stability index (doa10∆),protein stability index (pdr5∆),protein stability index (san1∆),protein stability index (ubr1∆)
ITRSFKEPRLVIVTDPR [RPS0A],1.56 ± 0.2,1.89 ± 0.13,1.98 ± 0.14,1.28 ± 0.13
ATGFGAHMANPLLRKVV [PRE4],3.29 ± 0.14,3.02 ± 0.13,1.58 ± 0.17,3.34 ± 0.18
DRVEDICERIFEQGQAL [RRI2],2.72 ± 0.12,3.02 ± 0.17,3.18 ± 0.22,
VTVSIKSRIVKVVGPRG [RPL9A],2.08 ± 0.051,2.63 ± 0.048,2.47 ± 0.052,2.75 ± 0.032
NFLSVITNKHQEGLAKF [RPN2],,,,3.17 ± 0.14
IKFLLTFIDKERHQKQL [YCS4],1.7 ± 0.18,,1.58 ± 0.27,
DHSMILPSGVLSRGDDE [SMC3],3.08 ± 0.094,2.51 ± 0.082,2.19 ± 0.12,2.39 ± 0.04
DKLWTLIPEDKRDQYLK [RPL28],3.32 ± 0.19,2.88 ± 0.22,3.13 ± 0.07,3.18 ± 0.24
SASRAKNMPVIYNNIVS [RGR1],2.42 ± 0.064,2.26 ± 0.064,2.31 ± 0.053,2.34 ± 0.047
SLGHQTSLITAVYGPRS [MTR3],2.54 ± 0.052,2.24 ± 0.056,2.63 ± 0.061,1.81 ± 0.053
LKQPPFQITLSSDDLQN [SSN8],2.23 ± 0.059,2.31 ± 0.077,2.34 ± 0.064,2.35 ± 0.085
VRKYDLNICRQCFREKA [RPS29B],2.12 ± 0.22,2.67 ± 0.092,2.02 ± 0.19,2.49 ± 0.11
DDFEVNVASLVRVQFQF [GRR1],2.57 ± 0.059,1.77 ± 0.089,1.78 ± 0.18,1.5 ± 0.089
VGVSHTNEEVRNMAEEF [CYT1],2.85 ± 0.13,2.35 ± 0.07,2.01 ± 0.13,2.22 ± 0.043
QILSVAIPNGIHLQRFD [RPO21],2.41 ± 0.1,2.33 ± 0.075,1.94 ± 0.1,2.77 ± 0.079
QDEVNKGPAIDELSSKE [NNF1],3.23 ± 0.061,3.36 ± 0.081,3.34 ± 0.077,3.24 ± 0.057
SISGFKEALLGQLLKDH [ARP9],2.01 ± 0.19,2.29 ± 0.092,1.89 ± 0.08,2.26 ± 0.068
MNERDWRILKEDYAIVT [PRP28],3.42 ± 0.22,3.16 ± 0.23,,
KKTCSSCGYPSAKTRSH [RPL37B],2.74 ± 0.066,2.51 ± 0.044,2.63 ± 0.084,1.99 ± 0.04
GASGVDDFQNFFDPKPF [SWI1],2.65 ± 0.065,2.68 ± 0.064,2.92 ± 0.092,3.11 ± 0.046
QNSDASTLEPTLRKELE [YIL149C/MLP2],2.59 ± 0.09,1.68 ± 0.091,2.55 ± 0.069,3.12 ± 0.077
LKNSIMSFIFPSYAERQ [YML031W/NDC1],2.51 ± 0.075,2.54 ± 0.083,2.38 ± 0.079,2.4 ± 0.067
PNYLHLVSSYLNKSDLL [YML103C/NUP188],1.96 ± 0.038,2.27 ± 0.034,2.21 ± 0.04,1.8 ± 0.031
TQDVFLKDFNTERVVEI [FAS2],3.116 ± 0.026,3.205 ± 0.023,3.211 ± 0.021,3.093 ± 0.019
LFEIYRDLGDDRVFNVP [YJR042W/NUP85],2.87 ± 0.11,3.2 ± 0.1,2.75 ± 0.11,2.89 ± 0.097
AESFTDEADSSMTEASV [SNF2],3.36 ± 0.094,3.19 ± 0.092,3.39 ± 0.05,3.09 ± 0.089
THNDIDSTAVALEEGLN [YJL039C/NUP192],2.78 ± 0.096,3.05 ± 0.047,2.53 ± 0.082,2.56 ± 0.06

Sequence,protein stability index (doa10∆),protein stability index (pdr5∆),protein stability index (san1∆),protein stability index (ubr1∆)
AGSAALKIIHDTFRWVG [RPO31],3.23 ± 0.093,2.85 ± 0.12,1.19 ± 0.17,3.24 ± 0.063
IPDIGDLPDTEGLELLG [PRP8],3.08 ± 0.14,3.15 ± 0.15,3.35 ± 0.063,3.29 ± 0.046
RKILNFKKDLVIVLSNI [SWI1],2.52 ± 0.1,2.25 ± 0.07,2.11 ± 0.14,2.71 ± 0.087
EVSGSIQYKKEYEELKE [SMC1],3.59 ± 0.15,3.15 ± 0.14,3.29 ± 0.089,3.35 ± 0.068
PQKNLLLKGPASTVAKT [YOR098C/NUP1],2.73 ± 0.057,2.94 ± 0.041,2.68 ± 0.054,2.83 ± 0.055
PIVEDRRVKQLDDITDS [SIR4],,1.49 ± 0.19,1.31 ± 0.21,1.64 ± 0.12
DSYIALYEKDIVPSMTH [RET1],2.5 ± 0.066,2.51 ± 0.07,2.46 ± 0.075,2.65 ± 0.067
NADFQKPWFATVNGQAR [FAS1],2.41 ± 0.066,2.37 ± 0.11,2.45 ± 0.082,2.87 ± 0.1
LTMHKIIQLILWSIHPS [SRB8],1.62 ± 0.047,1.53 ± 0.047,1.61 ± 0.088,1.53 ± 0.044
KVSPEELPLVITMPATN [ARP7],2.64 ± 0.053,2.68 ± 0.065,2.57 ± 0.053,2.57 ± 0.042
DVVERLHKNFESENFKI [RGR1],3.74 ± 0.18,3.4 ± 0.3,3.23 ± 0.18,3.81 ± 0.18
RAVGGEVGASAALAPKI [RPL12A],3.37 ± 0.14,3.21 ± 0.17,1.86 ± 0.18,3.2 ± 0.1
SFVLNKNTIDFERFPSP [RPN4],2.4 ± 0.059,2.66 ± 0.058,2.84 ± 0.057,2.88 ± 0.052
ELEKKYHGNECEINYYE [SRB8],3.04 ± 0.11,3.19 ± 0.086,3.26 ± 0.064,3.17 ± 0.066
SLKGVDPKFRRNHKHAL [RPL29],1.45 ± 0.068,1.77 ± 0.077,1.78 ± 0.082,1.78 ± 0.12
FTFGQSTSENKISEGSA [YOR098C/NUP1],3.71 ± 0.16,3.35 ± 0.084,2.86 ± 0.12,3.37 ± 0.11
DLIAEQVVTDYNILGNL [SSN2],2.52 ± 0.074,3.11 ± 0.077,2.28 ± 0.11,2.21 ± 0.063
IIVQYLTKFRQKLMQLV [RGR1],2.65 ± 0.089,2.88 ± 0.16,2.56 ± 0.083,2.46 ± 0.1
ARYSIIREINYTMSNHG [RPO31],,,,1.44 ± 0.23
TELLDEFIAAVNNPQEE [RPN10],3.01 ± 0.17,3.17 ± 0.14,3.08 ± 0.064,2.83 ± 0.15
NSKVDMKYDIFAKFIHH [IRR1],2.39 ± 0.083,2.15 ± 0.077,2.31 ± 0.071,2.47 ± 0.054
ANGTFMDFGVDPSMDPE [RPN10],2.87 ± 0.12,3.05 ± 0.091,2.65 ± 0.12,2.87 ± 0.085
KTFCEDPFSDVDDDQDY [GRR1],3.46 ± 0.17,3.31 ± 0.099,3.32 ± 0.048,3.46 ± 0.1
FSFGTSQPNNTPSFSFG [YLR335W/NUP2],2.81 ± 0.048,2.73 ± 0.047,2.88 ± 0.053,2.59 ± 0.037
FKDETISKKIIGMSLLM [SIR3],3.04 ± 0.062,2.07 ± 0.06,2.78 ± 0.068,3.51 ± 0.058
NKNIDIGLLNKSKSSLD [RPN2],2.37 ± 0.071,2.22 ± 0.097,1.76 ± 0.096,1.92 ± 0.05
TRGRNIIMHKDVEIGRM [RET1],,3.1 ± 0.16,2.98 ± 0.076,2.74 ± 0.15

Sequence,protein stability index (doa10∆),protein stability index (pdr5∆),protein stability index (san1∆),protein stability index (ubr1∆)
FLIHSGQPVNDFIDTAT [RPS3],2.71 ± 0.053,3 ± 0.056,3.09 ± 0.05,3.04 ± 0.073
FHIDHTKPSDLTIKDIV [RPO21],2.71 ± 0.048,2.66 ± 0.06,2.56 ± 0.059,2.8 ± 0.035
RKNYMHVKNFGFANSLT [YML031W/NDC1],1.18 ± 0.11,1.9 ± 0.11,2.3 ± 0.14,2.85 ± 0.063
TLETIEIHPITFPPEVL [RRP43],1.9 ± 0.045,2.25 ± 0.045,2.3 ± 0.06,2.01 ± 0.035
TSCLQNNNQKIDDNYIV [SRB8],3.15 ± 0.072,3.1 ± 0.081,3.33 ± 0.11,3.05 ± 0.062
NPHQDLQAQDRAHRIGQ [SNF2],3.03 ± 0.077,3.04 ± 0.074,2.9 ± 0.07,3.19 ± 0.053
PEVVELCQKSPVMADLN [FAS2],2.63 ± 0.074,2.69 ± 0.078,2.48 ± 0.11,2.73 ± 0.085
SLYAYCHSKLRGQQVEN [GRR1],2.51 ± 0.1,2.52 ± 0.092,2.54 ± 0.1,2.6 ± 0.097
VIGLDSEHDKKRLSAAL [YML103C/NUP188],3.5 ± 0.23,3.69 ± 0.19,3.14 ± 0.13,3.67 ± 0.14
TTVKPLFQNVPEQGEEP [YAR002W/NUP60],3.08 ± 0.07,3.3 ± 0.06,3.32 ± 0.04,3.21 ± 0.052
DAEVAQFLEQGLSIHPT [SRP68],2.79 ± 0.057,3 ± 0.063,2.76 ± 0.073,3.1 ± 0.042
TSSLQLYKFQNFQDLSY [YML103C/NUP188],2.81 ± 0.065,3.04 ± 0.064,2.84 ± 0.055,2.65 ± 0.071
DSLNEWIKFDQELYNEL [RPN7],3.18 ± 0.11,3.17 ± 0.19,3.17 ± 0.074,3.19 ± 0.073
AHTAGRYANKRFRKAQC [RPS5],2.29 ± 0.22,2.92 ± 0.18,,
IGTHHAGLTRSDRSLSE [BRR2],2.2 ± 0.11,2.05 ± 0.2,1.47 ± 0.14,2.62 ± 0.07
GLFEKSTVSANHSNNDI [BRN1],3.12 ± 0.14,2.95 ± 0.11,3.19 ± 0.08,3.11 ± 0.12
PMDEETKLYFDVNEKIR [RPC25],3.01 ± 0.098,3.03 ± 0.086,3.01 ± 0.068,3.1 ± 0.1
SSGVLSSNIAGTNPLSS [SSN2],3.41 ± 0.13,2.9 ± 0.12,2.83 ± 0.19,3.31 ± 0.088
KVATEKDFLKAVDKVIS [RPT1],3.23 ± 0.074,3.26 ± 0.094,3.05 ± 0.11,3.26 ± 0.053
DVTALLEQGFKVVSAKE [YCS4],2.48 ± 0.12,1.68 ± 0.077,2.9 ± 0.098,3.37 ± 0.16
THAVGNNCEDFVSRPDR [FAS1],3.16 ± 0.12,3.08 ± 0.18,2.97 ± 0.072,3.04 ± 0.087
ELTKEEAMYKLQLASLQ [SMC3],2.89 ± 0.1,2.88 ± 0.068,2.55 ± 0.084,2.64 ± 0.053
RKIEAETRNGKVKNQGA [YCS4],2.89 ± 0.14,3.43 ± 0.12,3.12 ± 0.12,3.22 ± 0.13
MSGGGNHVAKGLMKLGT [SMC4],,3.56 ± 0.3,,
VRTDTTYPAGFMDVITL [RPS4A],2.37 ± 0.11,2.57 ± 0.1,2.92 ± 0.1,2.78 ± 0.098
